Substitutions are numbered along the chain they refer to.
T1: human Trop-2 (on the surface of human cell lines) (human, UniProt P09758 27-323)
T1 sequence: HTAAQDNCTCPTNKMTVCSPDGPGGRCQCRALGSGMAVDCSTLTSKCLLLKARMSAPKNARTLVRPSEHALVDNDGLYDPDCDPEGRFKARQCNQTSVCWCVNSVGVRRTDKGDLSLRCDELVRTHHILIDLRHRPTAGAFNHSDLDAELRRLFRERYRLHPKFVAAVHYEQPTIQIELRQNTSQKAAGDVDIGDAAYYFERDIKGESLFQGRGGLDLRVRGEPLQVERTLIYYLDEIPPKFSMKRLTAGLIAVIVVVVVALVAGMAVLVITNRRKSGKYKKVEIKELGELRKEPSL

T2: human Trop-2-His (human, UniProt P09758 27-274, limits assumed)
T2 construct: by analogy with the macaque construct it is probably the extracellular domain with a His tag; also called Trop-2-His protein
T2 sequence: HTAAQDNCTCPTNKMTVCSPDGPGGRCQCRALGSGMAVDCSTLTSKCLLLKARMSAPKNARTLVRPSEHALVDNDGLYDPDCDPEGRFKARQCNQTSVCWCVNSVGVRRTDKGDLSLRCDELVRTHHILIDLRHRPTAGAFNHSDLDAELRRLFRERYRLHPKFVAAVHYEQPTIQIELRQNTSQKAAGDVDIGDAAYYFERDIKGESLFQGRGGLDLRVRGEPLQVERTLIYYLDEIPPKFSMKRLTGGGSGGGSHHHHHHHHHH

T3: Macaque Trop-2-His (macaque, UniProt P09758 27-274 (human entry))
T3 construct: Extracellular domain of macaque Trop-2 recombinantly linked to His; also called monkey Trop-2-His protein; monkey Trop-2
T3 chain: T2 sequence with M36V, S67N, I204V

B1: ch-Ab2 (antibody, human IgG1, kappa, V domains shown)
VH: EVQLVESGPGLVAPSQSLSITCTVSGFSLTYYGIDWVRQPPGKGLEWLGVIWGSGNTKYNSALMSRLSISKDNSKSQVFLRMNSLQSDDTAIYYCARFYEGFAYWGQGTLVTVSA
VL: AIVLTQSPSSMYASLGERVTITCKASQDINSYLSWFQQKPGKSPKTLIYRANRLVDGVPSRFSGSGSGQDYSLTISSLEYEDMGIYYCLQYDEFPLTFGVGTKLELKR
notes: also called chimeric antibody of Ab2
B2: hz-Ab2-1.1 (antibody, human IgG1, kappa, V domains shown)
VH: EVQLVESGGGLIQPGGSLRLSCAVSGFSLTYYGIDWVRQPPGKGLEWVSVIWGSGNTKYNSALKSRLTISRDNSKSTLYLQMNSLRAEDTAVYYCARFYEGFAYWGQGTLVTVSS
VL: DIQMTQSPSSLSASVGDRVTITCKASQDINSYLSWFQQKPGKAPKTLIYRANRLVEGVPSRFSGSGSGQDYTLTISSLQPEDFATYYCLQYDEFPLTFGQGTKVEIKR
notes: Humanized antibody
B3: hz-Ab2-2.2 (antibody, human IgG1, kappa, V domains shown)
VH: B2 VH with G9P, S49G, S61Y, R71K
VL: B2 VL with K24R, Y71F, F94Y
notes: Humanized antibody
B4: hz-Ab2-2.1 (antibody, human IgG1, kappa, V domains shown)
VH: B2 VH
VL: B2 VL with K24R, Y71F, F94Y
notes: Humanized antibody
B5: hz-Ab2-2.3 (antibody, human IgG1, kappa, V domains shown)
VH: QVQLQESGPGLVKPSETLSLTCTVSGFSLTYYGIDWIRQPPGKGLEWIGVIWGSGNTKYNSALKSRVTISKDNSKSQFSLKLSSVTAADTAVYYCARFYEGFAYWGQGTLVTVSS
VL: B2 VL with K24R, Y71F, F94Y
notes: Humanized antibody
B6: hz-Ab2-1.2 (antibody, human IgG1, kappa, V domains shown)
VH: B2 VH with G9P, S49G, S61Y, R71K
VL: B2 VL
notes: Humanized antibody

Legend:
[1] = molecular target: T1, human Trop-2 (on the surface of human …); experiment: cell-based or functional assay
[2] = molecular target: T1, human Trop-2 (on the surface of human …); experiment: cell-based or functional assay; remark: listed apart in the source
[3] = molecular target: T1, human Trop-2 (on the surface of human …); experiment: flow cytometry, HCC38 cells
Protocol: (§1) Tumor cells expressing Trop-2 were prepared into a cell suspension (0.5-1×10⁶ cells/mL) using the FACS buffer (Miltenyi Biotec, 130-091-221), and the cell suspension was added to a 96-well V-bottom plate at 100 μL/well. After centrifugation and removal of the supernatant, the test antibodies diluted with the FACS buffer to different concentrations (0.006 nM-100 nM) were each added at 50 μL/well. The mixture was incubated in the dark in a 4° C. refrigerator for 1 h. The plate was then washed 3 times with the FACS buffer by centrifugation at 300 g, and Alexa Fluor 488 goat anti-human IgG (H+L) (Bio-legend, 409304, 1:500 dilution) at working concentration was added. The mixture was incubated in the dark in a 4° C. refrigerator for 40 min. The plate was then washed 3 times with the FACS buffer by centrifugation at 300 g, the geometric mean fluorescence intensity (MFI) was measured on a Sartorius iQue3 flow cytometer, and the binding EC₅₀ values of the antibodies for tumor cells with different Trop-2 expression levels were calculated

[4] = molecular target: T1, human Trop-2 (on the surface of human …); experiment: flow cytometry, HCC1806 cells
Protocol: as §1

[5] = molecular target: T2, human Trop-2-His; experiment: ELISA, plate-coated human Trop-2-His
Protocol: (§2) After the liquid was discarded, 2% BSA (SIGMA, B2064-100G) diluted with PBS was added at 300 μL/well for blocking, and the mixture was incubated at 37° C. for 2 h. After the blocking was completed, the blocking buffer was discarded, the plate was washed 3 times with PBST buffer (pH 7.4 PBS containing 0.1% tween-20), the antibody solution diluted in a gradient was added at 100 μL/well, and the mixture was incubated at 37° C. for 1 h. After the incubation was completed, the plate was washed 3 times with PBST, the goat anti-human IgG (H+L) (JacksonImmunoResearch, 109-035-098, 1:5000 dilution) was added at 100 μL/well, and the mixture was incubated at 37° C. for 1 h. After the plate was washed 3 times with PBST, a TMB chromogenic substrate (TIANGEN, PA107-01) was added at 100 μL/well. The mixture was incubated at room temperature for 10-15 min, and then 1 M H₂SO₄ was added at 50 μL/well to terminate the reaction. The absorbance values at 450 nm were taken using a microplate reader. The binding curves of antibodies for antigen were fitted using software, and the EC₅₀ values were calculated.

[6] = molecular target: T3, Macaque Trop-2-His; experiment: ELISA, plate-coated macaque Trop-2-His
Protocol: as §2, with “times with the PBST buffer” for “times with PBST buffer”

[7] = molecular target: T2, human Trop-2-His; experiment: SPR (Biacore 8K), antibody captured, Trop-2-His as analyte
Text: The affinity of antibodies for human Trop-2-His was detected in the form of antibody capturing. The antibody was affinity-captured by a CM5 (Cat. #29149603, GE) biosensor chip conjugated with an anti-human IgG antibody (from human antibody capture kit, Cat. #29234600, GE), then the antigen human Trop-2-His flowed on the surface of the chip, and a Biacore 8K instrument was used for detecting reaction signals in real time to obtain association and dissociation curves. After dissociation was completed for each assay cycle, the chip was washed clean and regenerated with a regeneration buffer, 3M MgCl₂ (from human antibody capture kit, Cat. #29234600, GE). The association and dissociation curves were collected by Biacore 8K Control Software 3.0 in real time, and the data were analyzed by Biacore Insight Evaluation Software 3.0. The data were fitted using a Langmuir 1:1 model after double subtraction (namely, in each cycle, the contrast channel signal was subtracted from the experimental channel signal, and the sample signal was subtracted from the blank signal), and the association rate constant Ka, the dissociation rate constant Kd, and the equilibrium constant KD were calculated.

| Binder | ADCC reporter (Jurkat-CD16a v158-NFAT-luciferase), target cell H322, EC50 [1] | ADCC reporter (Jurkat-CD16a v158-NFAT-luciferase), target cell HCC1806, EC50 [1] | ADCC, PBMC killing (LDH), H322, EC50 [2] | ADCC, PBMC killing (LDH), H322, Maximum killing (%) [2] | ADCC, PBMC killing (LDH), HCC1806, EC50 [2] | ADCC, PBMC killing (LDH), HCC1806, Maximum killing (%) [2] | EC50 [3] | EC50 [4] | EC50 [5] | EC50 [6] | Kd [7] | koff [7] | kon [7] |
| --- | --- | --- | --- | --- | --- | --- | --- | --- | --- | --- | --- | --- | --- |
| B1 | 170 pM | 200 pM | 10 pM | 48.1% | 20 pM | 40% | 590 pM | 780 pM | 85 pM | 48 pM |  |  |  |
| B2 | 1450 pM | 4100 pM | 130 pM | 47.8% | 460 pM | 32.9% |  |  | 82 pM | 133 pM | 47800 pM | 0.0029 s⁻¹ | 60600 M⁻¹ s⁻¹ |
| B3 |  |  |  |  |  |  |  |  | 218 pM | 341 pM | 2410 pM | 0.00059 s⁻¹ | 245000 M⁻¹ s⁻¹ |
| B4 |  |  |  |  |  |  |  |  | 1080 pM | 1190 pM | 686 pM | 0.00023 s⁻¹ | 336000 M⁻¹ s⁻¹ |
| B5 |  |  |  |  |  |  |  |  | 359 pM | 830 pM | 2720 pM | 0.000643 s⁻¹ | 237000 M⁻¹ s⁻¹ |
| B6 | 310 pM | 420 pM | 10 pM | 48.4% | 30 pM | 36.6% | 760 pM | 900 pM | 76 pM | 64 pM | 1430 pM | 0.00508 s⁻¹ | 3.56e+06 M⁻¹ s⁻¹ |
